Biological target: microtubules (MTs) polymerised from purified tubulin (Cytoskeleton, # T240) (UniProt P02550)

MT-polymerization (turbidity at 340 nm, no taxol; 2 µM tubulin, 0.2 µM Diaph2 protein), fold against the control: 6 fold
Substance: Diaph2 mutant lacking the FH2-domain (ΔFH2-Diaph2), GST-fusion protein (from UniProt O60879 1-1101) (natural protein)

Source: article PMC6441084
